Assay results from publication doi:10.64898/2025.12.10.693404.

Columns and labels:
His6-SUMO-TDP-43 [1] = biological target: T1, His6-SUMO-TDP-43 (UniProt Q13148 1-414); test: fluorescence anisotropy
His6-SUMO-TDP-43 [2] = biological target: T1, His6-SUMO-TDP-43; test: fluorescence anisotropy; remark: listed apart in the source

T1 sequence (Q13148 whole entry): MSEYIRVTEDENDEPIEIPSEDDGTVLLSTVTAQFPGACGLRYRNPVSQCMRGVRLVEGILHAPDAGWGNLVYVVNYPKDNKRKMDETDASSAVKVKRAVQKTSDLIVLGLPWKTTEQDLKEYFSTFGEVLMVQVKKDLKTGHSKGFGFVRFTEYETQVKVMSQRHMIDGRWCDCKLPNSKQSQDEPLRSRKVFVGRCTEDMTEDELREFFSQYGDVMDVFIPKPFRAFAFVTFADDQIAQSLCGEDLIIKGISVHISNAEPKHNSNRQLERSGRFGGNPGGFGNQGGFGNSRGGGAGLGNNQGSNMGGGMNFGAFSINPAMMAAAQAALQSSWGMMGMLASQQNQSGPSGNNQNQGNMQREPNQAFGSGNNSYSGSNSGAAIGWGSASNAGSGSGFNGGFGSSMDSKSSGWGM

Binder | Kd (His6-SUMO-TDP-43 [1]) | binding result (His6-SUMO-TDP-43 [2])
TGTGTGTG (ssDNA) [(TG)4] | ~1800 nM | 
ACACACAC (ssDNA) [(AC)4] |  | no binding
